Experimental data taken from patent publication US20240148892A1 (DUALITY BIOLOGICS SUZHOU, published 2024).

B1: Enoblituzumab (MacroGenics) (antibody, V domains shown)
VH: EVQLVESGGGLVQPGGSLRLSCAASGFTFSSFGMHWVRQAPGKGLEWVAYISSDSSAIYYADTVKGRFTISRDNAKNSLYLQMNSLRDEDTAVYYCGRGRENIYYGSRLDYWGQGTTVTVSS
VL: DIQLTQSPSFLSASVGDRVTITCKASQNVDTNVAWYQQKPGKAPKALIYSASYRYSGVPSRFSGSGSGTDFTLTISSLQPEDFATYYCQQYNNYPFTFGQGTKLEIKR
B2: W301088-1.145.16-xIgG1KV320 (antibody, V domains shown)
VH: DVQLQESGPGLVKPSQSLSLTCTVTDYSITGDYAWNWIRQFPGNKLEWMGYISYSGSTSYNPSLQSRISITRDTSKNQFFLQLNSVTSEDTATYFCARSLGRRWYFVVWGAGTTVTVSA
VL: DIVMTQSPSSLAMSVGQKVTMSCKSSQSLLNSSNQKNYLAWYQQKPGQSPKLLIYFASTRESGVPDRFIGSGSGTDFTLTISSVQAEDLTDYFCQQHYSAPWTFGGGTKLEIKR
B3: W301088-1.145.16-z3-p1-uIgG1KV320 (antibody, V domains shown)
VH: QVQLQESGPGLVKPSQTLSLTCTVTDYSITGDYAWNWIRQHPGKGLEWIGYISYSGSTSYNPSLQSRVTISRDTSKNQFSLKLSSVTAADTAVYFCARSLGRRWYFVVWGQGTTVTVSS
VL: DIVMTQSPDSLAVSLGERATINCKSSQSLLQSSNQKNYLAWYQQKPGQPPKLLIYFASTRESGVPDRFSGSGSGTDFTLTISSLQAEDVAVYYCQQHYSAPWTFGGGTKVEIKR
notes: Humanized, PTM-removed (VL N027dQ) human IgG1 LALA kappa antibody; also called WBP301088; W301088-z3-p1

How the values were obtained:
[1] = molecular target: T1, Cynomolgus monkey B7-H3/CD276 protein, His tag (cynomolgus monkey); experiment: SPR (Biacore 8K), antibody captured on anti-human Fc IgG, cynomolgus monkey B7H3 as analyte, 1:1 model
T1 construct: Bought protein; 49 kDa used in the SPR calculation; also called ACRO B73-C52Ha
Experimental: (§1) The affinity of antibodies for cynomolgus monkey B7H3 was determined using surface plasmon resonance (SPR). The affinity of antibodies for cynomolgus monkey B7H3 was determined by Biacore 8K. An activator was prepared by mixing 400 mM EDC and 100 mM NHS (GE) immediately prior to injection into the channel. The CMS sensor chip was activated for 420 seconds with the activator. Goat anti-human Fc IgG (30 μg/mL in 10 mM NaAc, pH 4.5) was then injected into the channel at a flow rate of 10 μL/min for 420 seconds. The chip was deactivated by 1 M ethanolamine hydrochloric acid. The antibodies diluted in running buffer (1×HBS-EP+) were injected into the channel at a flow rate of 10 μL/min for 30 seconds. […] Glycine (10 mM, pH 1.5) was injected as regeneration buffer after the dissociation phase.
The sensorgrams for the reference channel and the buffer channel were subtracted from the test sensorgrams. […] The molecular weight of the cynomolgus monkey B7H3 used in the calculation was 49 kDa.
(§2) The experimental data were fitted by a 1:1 binding model bundled with the Biacore 8K evaluation software.

[2] = molecular target: T2, Human B7-H3/CD276 protein, His tag (2IgB7H3) (human, UniProt Q5ZPR3-2 29-245); experiment: SPR (Biacore 8K), antibody captured on anti-human Fc IgG, human 2IgB7H3 as analyte, 1:1 model
T2 construct: Bought protein; 25.2 kDa used in the SPR calculation; also called human 2IgB7H3; ACRO B73-H52E2; not shown: His tag
T2 sequence (looked up): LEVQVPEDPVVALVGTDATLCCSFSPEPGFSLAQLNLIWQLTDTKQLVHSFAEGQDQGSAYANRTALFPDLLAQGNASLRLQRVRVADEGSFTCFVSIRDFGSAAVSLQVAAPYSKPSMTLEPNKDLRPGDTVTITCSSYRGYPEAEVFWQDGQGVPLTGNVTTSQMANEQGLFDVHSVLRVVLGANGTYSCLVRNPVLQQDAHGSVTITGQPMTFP
Experimental: as §1, with “human 2IgB7H3” for “cynomolgus monkey B7H3”
The sensorgrams for the reference channel and the buffer channel were subtracted from the test sensorgrams. The experimental data were fitted with a 1:1 binding model. The molecular weight of the human 2IgB7H3 used in the calculation was 25.2 kDa.
as §2

[3] = molecular target: T3, Human PD-L2, His Tag (confirmed by SPR) (human, UniProt Q9BQ51 20-219); experiment: ELISA, B7 family protein immobilized on plate, serially diluted antibody
T3 construct: Bought protein; also called human PD-L2 protein; ACRO PD2-H5220; not shown: His tag
T3 sequence (looked up): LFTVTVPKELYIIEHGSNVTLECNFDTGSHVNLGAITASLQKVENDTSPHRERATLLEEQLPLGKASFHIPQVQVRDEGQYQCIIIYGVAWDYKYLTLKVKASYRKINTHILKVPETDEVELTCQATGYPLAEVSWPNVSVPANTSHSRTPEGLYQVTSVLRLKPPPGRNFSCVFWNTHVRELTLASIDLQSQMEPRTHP
Experimental: (§3) Human PD-Ll protein (see the table above), human B7-H2 protein, human B7-H3 protein, human B7-H4 protein, human B7-H5 protein, human B7-H6 protein, human B7-1 protein, human B7-2 protein, human PD-L2 protein, human B7-H7 protein, and human BTNL2 protein were separately immobilized on 96-well plates by incubation at 4° C. overnight. The 96-well plates were then blocked by incubation with 1% BSA in PBS at 37° C. for 1 h. After blocking, the 96-well plates were washed 3 times with PBST (PBS containing 0.05% Tween 20). […] After incubation, the 96-well plates were washed 3 times with PBST, incubated with a secondary antibody (see the table above) in binding buffer at 37° C. for 1 h, and then washed again. TMB was added for color development, and the reaction was stopped by 1 M H₂SO₄.

[4] = molecular target: T4, Human B7-H4 protein, His Tag (human, UniProt Q7Z7D3 29-258); experiment: as above
T4 construct: Bought protein; also called ACRO B74-H5222; not shown: His tag
T4 sequence (looked up): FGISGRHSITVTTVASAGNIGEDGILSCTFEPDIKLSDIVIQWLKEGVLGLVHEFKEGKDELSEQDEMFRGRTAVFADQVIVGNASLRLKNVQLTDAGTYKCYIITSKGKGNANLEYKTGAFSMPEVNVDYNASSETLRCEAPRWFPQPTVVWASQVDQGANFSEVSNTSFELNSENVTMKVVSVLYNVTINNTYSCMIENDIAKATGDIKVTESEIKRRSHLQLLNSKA
Experimental: as §3

[5] = molecular target: T5, human full-length B7H3 expressed on MCF-7 cells (human, UniProt Q5ZPR3 29-534); experiment: cell-based or functional assay
T5 sequence: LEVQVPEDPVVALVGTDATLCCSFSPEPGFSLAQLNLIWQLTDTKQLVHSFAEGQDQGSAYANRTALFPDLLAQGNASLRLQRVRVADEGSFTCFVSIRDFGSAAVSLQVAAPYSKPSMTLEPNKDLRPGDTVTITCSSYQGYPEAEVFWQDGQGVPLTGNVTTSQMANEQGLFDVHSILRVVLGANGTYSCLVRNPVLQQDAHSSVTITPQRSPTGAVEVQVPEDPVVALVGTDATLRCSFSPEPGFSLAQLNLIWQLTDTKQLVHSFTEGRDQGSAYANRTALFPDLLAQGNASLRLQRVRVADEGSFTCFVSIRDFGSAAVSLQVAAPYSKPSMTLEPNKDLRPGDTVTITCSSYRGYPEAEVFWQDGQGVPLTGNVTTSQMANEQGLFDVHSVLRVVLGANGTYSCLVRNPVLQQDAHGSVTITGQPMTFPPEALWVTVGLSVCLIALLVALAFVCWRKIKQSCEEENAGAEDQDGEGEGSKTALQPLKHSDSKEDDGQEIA

Binder | Kd [1] [pM] | koff [1] [s⁻¹] | kon [1] [M⁻¹ s⁻¹] | Kd [2] [pM] | koff [2] [s⁻¹] | kon [2] [M⁻¹ s⁻¹] | binding result [3] | binding result [4] | Antibody internalization EC50, MCF-7 cells (value in running text, differs from Table 16) [5] [pM]
B1 | 441 | 8.14e-05 | 185000 | 261000 | 0.0168 | 64400 |  |  | 
B2 | 56.4 | 2.94e-05 | 521000 | 57700 | 0.0136 | 235000 |  |  | 
B3 | 57.4 | 3.02e-05 | 527000 | 46400 | 0.0141 | 303000 | no binding | no binding | 510
